Measured values: patent US20250332277A1 (Eli Lilly, published 2025)
Blank lines part the entries; values can stand above or below the binder they belong to.

Key:
[1] = molecular target: T1, recombinant human PTK7 (Acro Biosystems Cat. No. PT7-H52H3) (human, UniProt Q13308 31-704); test: SPR, Biacore 8K+, ADC captured by anti-human Fc, human PTK7 as analyte, 37 C, 1:1 model
T1 construct: Bought recombinant protein; also called human PTK7 analyte
T1 sequence: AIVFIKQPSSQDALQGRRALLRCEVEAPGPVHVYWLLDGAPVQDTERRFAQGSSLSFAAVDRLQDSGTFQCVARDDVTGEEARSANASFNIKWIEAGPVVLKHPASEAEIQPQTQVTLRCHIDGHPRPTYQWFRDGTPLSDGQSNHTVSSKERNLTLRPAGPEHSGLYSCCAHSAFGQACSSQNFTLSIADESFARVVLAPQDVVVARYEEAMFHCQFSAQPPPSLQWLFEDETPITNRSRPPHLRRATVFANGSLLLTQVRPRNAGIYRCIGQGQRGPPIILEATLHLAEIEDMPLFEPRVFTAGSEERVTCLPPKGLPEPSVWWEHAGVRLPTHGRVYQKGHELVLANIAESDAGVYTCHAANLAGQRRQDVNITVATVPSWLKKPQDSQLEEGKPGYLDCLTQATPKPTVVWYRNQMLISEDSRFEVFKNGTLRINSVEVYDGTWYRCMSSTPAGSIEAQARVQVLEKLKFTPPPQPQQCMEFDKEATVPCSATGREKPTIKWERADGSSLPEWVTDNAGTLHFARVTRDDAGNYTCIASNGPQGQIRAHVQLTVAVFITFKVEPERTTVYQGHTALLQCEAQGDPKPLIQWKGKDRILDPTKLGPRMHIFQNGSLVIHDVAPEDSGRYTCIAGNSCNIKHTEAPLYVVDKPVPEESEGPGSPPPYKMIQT
Procedure: A Biacore 8K+ instrument (Cytiva, Marlborough, MA) was used to determine kinetics and affinity parameters for the binding interactions of ADCs binding to recombinant human PTK7 (Acro Biosystems Cat. No. PT7-H52H3, Newark, DE).
In each analysis cycle, a different ADC was captured on flow cell 2 of each channel by injecting a 5 μg/mL solution at 10 μL/min for 2 minutes. After capture, the same analyte was injected on flow cells 1 and 2 in all 8 channels for 2 minutes at 30 μL/min and dissociation was monitored for 10 minutes. After dissociation, all surfaces were regenerated with three consecutive 1-minute injections of 75 mM phosphoric acid at 10 μL/min. ADC capture and analyte cycles were repeated to obtain human PTK7 analyte binding of each ADC at analyte concentrations of 0, 2.47, 7.41, 22.2, 66.7, 200, and 600 nMs.
Sensorgram data were reference subtracted and blank subtracted, then globally fit with the default 1:1 binding model in Biacore Insight Evaluation Software v3.0.12.15655, as shown in Table 4.

[2] = molecular target: T2, human PTK-7 on cells (OV90-PTK-7, NCI-H446, OVCAR-3) (human, UniProt Q13308 31-1070); test: cell-based or functional assay
T2 sequence: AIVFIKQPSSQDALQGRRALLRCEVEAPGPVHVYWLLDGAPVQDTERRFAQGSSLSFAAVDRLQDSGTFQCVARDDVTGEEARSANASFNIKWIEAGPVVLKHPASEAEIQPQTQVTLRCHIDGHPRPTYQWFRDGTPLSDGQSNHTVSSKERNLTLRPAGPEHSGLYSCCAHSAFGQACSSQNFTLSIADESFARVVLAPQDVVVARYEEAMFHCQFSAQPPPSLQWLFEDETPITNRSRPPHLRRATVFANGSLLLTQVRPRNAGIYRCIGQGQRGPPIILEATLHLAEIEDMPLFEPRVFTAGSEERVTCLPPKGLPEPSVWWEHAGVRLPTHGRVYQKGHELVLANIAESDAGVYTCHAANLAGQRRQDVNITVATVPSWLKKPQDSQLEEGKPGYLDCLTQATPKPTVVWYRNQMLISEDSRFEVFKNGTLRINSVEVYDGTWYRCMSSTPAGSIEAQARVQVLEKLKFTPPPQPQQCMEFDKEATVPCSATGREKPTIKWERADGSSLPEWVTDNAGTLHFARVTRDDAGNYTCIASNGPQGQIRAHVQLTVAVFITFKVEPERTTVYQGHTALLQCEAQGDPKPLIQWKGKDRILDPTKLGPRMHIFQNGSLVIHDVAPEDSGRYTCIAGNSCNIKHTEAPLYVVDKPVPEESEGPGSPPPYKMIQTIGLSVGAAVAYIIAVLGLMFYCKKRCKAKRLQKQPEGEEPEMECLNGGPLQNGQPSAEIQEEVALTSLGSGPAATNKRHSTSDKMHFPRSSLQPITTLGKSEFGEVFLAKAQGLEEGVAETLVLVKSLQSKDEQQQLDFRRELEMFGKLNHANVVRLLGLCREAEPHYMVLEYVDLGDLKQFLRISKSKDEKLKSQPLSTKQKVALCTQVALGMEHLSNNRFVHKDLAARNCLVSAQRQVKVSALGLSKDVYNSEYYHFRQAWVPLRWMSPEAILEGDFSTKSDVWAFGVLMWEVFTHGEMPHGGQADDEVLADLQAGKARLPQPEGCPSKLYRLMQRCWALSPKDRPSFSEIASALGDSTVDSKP

[3] = molecular target: T2, human PTK-7 on cells (OV90-PTK-7, …); test: flow cytometry, OVCAR3 cells; against cofetuzumab
Procedure: (§1) OV90-PTK-7, overexpressing engineered ovarian tumor line representing high expression, NCI-H446 human lung cancer cells representing medium endogenous expression and OVCAR-3 human ovarian cancer cells representing low endogenous expression. […] OV90 parental cells and Namalwa-luc-GFP cells were selected as the PTK-7 negative cell lines. Antibody binding was quantified via flow cytometry and both the EC₅₀ of the binding curves and the maximum binding MFI for each antibody were recorded.
(§2) Cells were dissociated using non-enzymatic dissociation buffer for 5 min at 37° C. Cells were counted and aliquoted to a V-bottom polypropylene 96-well plate at 10⁵ cells/well. Cells were centrifuged at 1800 rpm×3 min and the supernatant discarded. An 11-point antibody dilution series was prepared in assay buffer (1×PBS containing 5% FBS) starting at 300 nM and diluting 1:4 down. The dilution series was added to cells at 100 μL/well and mixed by pipetting. Several untreated control wells/cell lines were prepared in assay buffer alone. Cells and antibodies were incubated at 4° C. on an orbital shaker for 1 hour. After incubation, the assay plates were centrifuged and washed twice with 300 μL/well of assay buffer. Cell pellets were then stained with a 1:500 dilution of Alexa647 conjugated mouse anti-human IgG secondary antibody in assay buffer, at 100 μL/well. Assay plates were incubated shaking in the dark at 4° C. for 1 hour. After incubation, plates were centrifuged, and the cells were washed twice with 300 μL/well of assay buffer. A 1:2000 dilution of Zombie Green viability marker in 1×PBS was aliquoted to the cells at 100 μL/well and plates were incubated in the dark for 10 min shaking at room temperature. Cell pellets were then washed 1× with assay buffer and fixed with 200 μL/well of 4% paraformaldehyde in 1×PBS in the dark at room temperature for 15 min. […]
(§3) Cells were acquired on an Attune Cytpix Cytometer and FCS files generated using Attune™ Cytometric Software (v. 6.0.1). FCS files were then analyzed on FlowJo (v10.8.1).

[4] = molecular target: T2, human PTK-7 on cells (OV90-PTK-7, …); test: flow cytometry, NCI-H446 cells; against cofetuzumab
Procedure: as §1, §2, §3

[5] = molecular target: T2, human PTK-7 on cells (OV90-PTK-7, …); test: flow cytometry, OV90-PTK-7 cells
Procedure: as §1
(§4) Cells were dissociated using non-enzymatic dissociation buffer for 5 min at 37° C. Cells were counted and aliquoted to a V-bottom polypropylene 96-well plate at 10⁵ cells/well. Cells were centrifuged at 1800 rpm×3 min and the supernatant discarded. An 11-point antibody dilution series was prepared in assay buffer (1×PBS containing 5% FBS) starting at 300 nM and diluting 1:4 down. The dilution series was added to cells at 100 μL/well and mixed by pipetting. Several untreated control wells/cell lines were prepared in assay buffer alone. Cells and antibodies were incubated at 4° C. on an orbital shaker for 1 hour. After incubation, the assay plates were centrifuged and washed twice with 300 μL/well of assay buffer. Cell pellets were then stained with a 1:500 dilution of Alexa647 conjugated mouse anti-human IgG secondary antibody in assay buffer, at 100 μL/well. Assay plates were incubated shaking in the dark at 4° C. for 1 hour. After incubation, plates were centrifuged, and the cells were washed twice with 300 μL/well of assay buffer. A 1:2000 dilution of Zombie Green viability marker in 1×PBS was aliquoted to the cells at 100 μL/well and plates were incubated in the dark for 10 min shaking at room temperature. Cell pellets were then washed 1× with assay buffer and fixed with 200 μL/well of 4% paraformaldehyde in 1×PBS in the dark at room temperature for 15 min. Cells were centrifuged and washed before resuspending in 100 μL of assay buffer for acquisition on Attune Cytpix Cytometer.
as §3

[6] = molecular target: T2, human PTK-7 on cells (OV90-PTK-7, …); test: flow cytometry, OV90-PTK-7 cells; against cofetuzumab
Procedure: as §1, §2, §3

[7] = molecular target: T2, human PTK-7 on cells (OV90-PTK-7, …); test: flow cytometry, NCI-H446 cells
Procedure: as §1, §4, §3

[8] = molecular target: T2, human PTK-7 on cells (OV90-PTK-7, …); test: flow cytometry, OVCAR3 cells
Procedure: as §1, §4, §3

B1: Ab1-PSAR10-VA-exatecan (other)
heavy: EVQLVESGGGLVKPGGSLRLSCAASGFTFSSYIMNWVRQAPGKGLEWVSSISSSSTFIYYADSVKGRFTISRDNAKNSLYLQMNSLRAEDTAVYYCAKGFDYWGQGTLVTVSSASTKGPSVFPLAPSSKSTSGGTAALGCLVKDYFPEPVTVSWNSGALTSGVHTFPAVLQSSGLYSLSSVVTVPSSSLGTQTYICNVNHKPSNTKVDKRVEPKSCDKTHTCPPCPAPEAAGGPSVFLFPPKPKDTLMISRTPEVTCVVVSVSHEDPEVKFNWYVDGVEVHNAKTKPREEQYNSTYRVVSVLTVLHQDWLNGKEYKCKVSNKALPAPIEKTISKAKGQPREPQVYTLPPSREEMTKNQVSLTCLVKGFYPSDIAVEWESNGQPENNYKTTPPVLDSDGSFFLYSKLTVDKSRWQQGNVFSCSVMHEALHNHYTQKSLSLSPGK
light: DIQLTQSPSFLSASVGDRVTITCRASQDISSYLVWYQQKPGKAPKLLIYAASTLQSGVPSRFSGSGSGTEFTLTISSLQPEDFATYYCQQLNTYPRTFGQGTKVEIKRTVAAPSVFIFPPSDEQLKSGTASVVCLLNNFYPREAKVQWKVDNALQSGNSQESVTEQDSKDSTYSLSSTLTLSKADYEKHKVYACEVTHQGLSSPVTKSFNRGEC
modifications: PSAR10-VA-exatecan linker-payload (Formula XV) on cysteine thiols after full reduction of the antibody (DAR 8 procedure); positions not stated for this ADC
notes: Antibody-drug conjugate of Ab1; also called Ab1-VA-Exatecan
- Kd [1]: 28.9 nM
- koff [1]: 0.0342 s⁻¹
- kon [1]: 1.19e+06 M⁻¹ s⁻¹
- Cytotoxicity IC50, OVCAR-3 cells (CellTiter-Glo, 7 days) [2]: 4 nM

B3: Cofetuzumab (antibody, V domains shown)
VH: QVQLVQSGPEVKKPGASVKVSCKASGYTFTDYAVHWVRQAPGKRLEWIGVISTYNDYTYNNQDFKGRVTMTRDTSASTAYMELSRLRSEDTAVYYCARGNSYFYALDYWGQGTSVTVSS
VL: EIVLTQSPATLSLSPGERATLSCRASESVDSYGKSFMHWYQQKPGQAPRLLIYRASNLESGIPARFSGSGSGTDFTLTISSLEPEDFAVYYCQQSNEDPWTFGGGTKLEIK
- Average Max MFI [5]: 68500 MFI
- EC50 [5]: 1.41 nM
- Average Max MFI [7]: 26800 MFI
- EC50 [7]: 0.54 nM
- Average Max MFI [8]: 21900 MFI
- EC50 [8]: 0.7 nM

B4: Ab2 (antibody, human IgG1, kappa, L234A L235A, V domains shown)
VH: QVQLQESGPGLVKPSETLSLTCTVSGGSISTYYWSWIRQPAGKGLEWIGRIYTSGLTNYNPSLKSRVTMSVDTSKNQFSLKLSSVTAADTAVYYCARDPHYYDGSGFDYWGQGTLVTVSS
VL: not shown
notes: Fully human antibody; also called Antibody 2
- % of Cofetuzumab (Average Max MFI) [3]: 87.7%
- % of Cofetuzumab (Average Max MFI) [4]: 97.6%
- Average Max MFI [5]: 70500 MFI
- EC50 [5]: 1.83 nM
- % of Cofetuzumab (Average Max MFI) [6]: 103%
- Average Max MFI [7]: 26200 MFI
- EC50 [7]: 0.6 nM
- Average Max MFI [8]: 19200 MFI

More lines, now with the values ahead:

- % of Cofetuzumab (Average Max MFI) [3]: 75%
- % of Cofetuzumab (Average Max MFI) [4]: 97.4%
- Average Max MFI [5]: 69900 MFI
- EC50 [5]: 1.28 nM
- % of Cofetuzumab (Average Max MFI) [6]: 102%
- Average Max MFI [7]: 26100 MFI
- EC50 [7]: 0.54 nM
- Average Max MFI [8]: 16400 MFI
- EC50 [8]: 0.95 nM
B2: Ab4 (antibody, human IgG1, kappa, L234A L235A, V domains shown)
VH: EVQLVESGGGLVKPGGSLRLSCAASGFTFSSYSMNWVRQAPGKGLEWVSSIDSSSSFIYYADSVKGRFTISRDNAKNSLYLQMNSLRAEDTAVYYCARGTGLFDFWGQGTLVTVSS
VL: EIVLTQSPGTLSLSPGERATLSCRASQSFSSSYLAWYQQKPGQAPRLLIYGASSRATGIPDRFSGSGSGTDFTLTISRLEPEDFAVYYCQQYGRTPWTFGQGTKVEIKR
notes: Fully human antibody; also called Antibody 4; PTK-7 Antibody Ab4

- % of Cofetuzumab (Average Max MFI) [3]: 71.6%
- % of Cofetuzumab (Average Max MFI) [4]: 86.3%
- Average Max MFI [5]: 66100 MFI
- EC50 [5]: 1.25 nM
- % of Cofetuzumab (Average Max MFI) [6]: 96.5%
- Average Max MFI [7]: 23200 MFI
- EC50 [7]: 0.7 nM
- Average Max MFI [8]: 15700 MFI
- EC50 [8]: 2.81 nM
B5: Ab1 (antibody, human IgG1, kappa, L234A L235A, V domains shown)
VH: EVQLVESGGGLVKPGGSLRLSCAASGFTFSSYIMNWVRQAPGKGLEWVSSISSSSTFIYYADSVKGRFTISRDNAKNSLYLQMNSLRAEDTAVYYCAKGFDYWGQGTLVTVSS
VL: DIQLTQSPSFLSASVGDRVTITCRASQDISSYLVWYQQKPGKAPKLLIYAASTLQSGVPSRFSGSGSGTEFTLTISSLQPEDFATYYCQQLNTYPRTFGQGTKVEIKR
notes: Fully human antibody; also called Antibody 1; PTK-7 Antibody Ab1
